Test results: patent publication US20090123479A1 (published 2009)

T1: Endogenous human IL-23 (human, UniProt Q9NPF7 20-189; P29460 23-328)
T1 construct: also called endogenous human IL-23 from stimulated dendritic cells
T1 sequence 1: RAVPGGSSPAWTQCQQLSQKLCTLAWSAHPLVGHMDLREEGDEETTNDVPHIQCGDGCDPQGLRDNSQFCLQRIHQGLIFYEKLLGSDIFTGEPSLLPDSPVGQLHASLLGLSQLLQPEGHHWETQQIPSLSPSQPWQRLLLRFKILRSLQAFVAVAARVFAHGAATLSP
T1 sequence 2: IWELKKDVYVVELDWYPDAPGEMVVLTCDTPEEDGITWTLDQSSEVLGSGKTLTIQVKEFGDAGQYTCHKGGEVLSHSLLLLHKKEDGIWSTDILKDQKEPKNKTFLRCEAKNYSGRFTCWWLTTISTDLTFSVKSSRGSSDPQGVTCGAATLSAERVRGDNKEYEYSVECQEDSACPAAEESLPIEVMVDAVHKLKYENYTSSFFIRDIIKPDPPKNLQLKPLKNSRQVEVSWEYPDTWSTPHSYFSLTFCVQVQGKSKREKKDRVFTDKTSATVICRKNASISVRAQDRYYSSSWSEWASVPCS

T2: recombinant human IL-23 (human, UniProt Q9NPF7 20-189; P29460 23-328)
T2 construct: also called hIL-23
T2 sequence 1: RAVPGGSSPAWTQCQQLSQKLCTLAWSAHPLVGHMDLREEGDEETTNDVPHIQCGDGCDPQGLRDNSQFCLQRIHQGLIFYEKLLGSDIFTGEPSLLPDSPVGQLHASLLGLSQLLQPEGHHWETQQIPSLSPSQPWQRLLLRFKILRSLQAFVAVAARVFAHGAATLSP
T2 sequence 2: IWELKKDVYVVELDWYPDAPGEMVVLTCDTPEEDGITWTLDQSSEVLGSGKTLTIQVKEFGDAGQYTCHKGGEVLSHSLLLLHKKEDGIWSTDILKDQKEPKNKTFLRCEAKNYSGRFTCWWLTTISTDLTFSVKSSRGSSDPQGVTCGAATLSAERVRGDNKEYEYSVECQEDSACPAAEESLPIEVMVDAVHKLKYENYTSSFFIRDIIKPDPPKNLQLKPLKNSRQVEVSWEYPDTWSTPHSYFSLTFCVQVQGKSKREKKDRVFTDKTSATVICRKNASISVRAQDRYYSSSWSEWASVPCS

T3: recombinant cynomologus IL-23 (cynomolgus, limits assumed)
T3 construct: also called cynomolgus IL-23; cyno IL23
T3 chain 1: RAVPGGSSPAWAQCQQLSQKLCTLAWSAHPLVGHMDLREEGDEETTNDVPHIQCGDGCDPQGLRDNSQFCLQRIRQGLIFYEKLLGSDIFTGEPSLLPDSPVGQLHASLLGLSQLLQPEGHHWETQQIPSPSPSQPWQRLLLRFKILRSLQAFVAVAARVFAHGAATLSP
T3 chain 2: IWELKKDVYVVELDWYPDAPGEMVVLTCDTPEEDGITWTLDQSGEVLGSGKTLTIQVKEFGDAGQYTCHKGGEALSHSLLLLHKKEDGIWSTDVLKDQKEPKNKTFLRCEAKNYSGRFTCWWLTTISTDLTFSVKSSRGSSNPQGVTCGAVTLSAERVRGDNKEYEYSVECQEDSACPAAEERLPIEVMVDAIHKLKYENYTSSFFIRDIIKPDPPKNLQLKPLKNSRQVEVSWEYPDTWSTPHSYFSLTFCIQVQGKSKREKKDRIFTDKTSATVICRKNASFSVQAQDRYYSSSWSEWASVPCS


Legend:
Endogenous human IL-23 = molecular target: T1, Endogenous human IL-23; assay: receptor inhibition ELISA: plate coated with recombinant human IL-23 receptor, endogenous human IL-23 at 3.5 ng/ml pre-incubated with titrated purified antibody, bound IL-23 detected with biotinylated anti-human IL-12; 1% BSA
Description: Recombinant human IL-23 Receptor (R&D systems 1400-IR-050) was coated onto 96 well plates at a concentration of 1 μg/ml. Endogenous human IL-23 at 3.5 ng/ml final, was pre incubated for 1 hour with a titration of purified antibody material before being added to the pre-coated plates. Detection was performed with biotinylated anti-human 1L12 (R&D systems BAF-219) followed by Streptavidin-HRP (GE Healthcare RPN 4401). This neutralisation ELISA used 1% BSA.

recombinant human IL-23 [1] = molecular target: T2, recombinant human IL-23; assay: SPR (Biacore 3000), hybridoma supernatant mAb captured on anti-murine IgG, human IL-23 analyte, 1:1 model, 25 C
Description: (§1) Anti-murine IgG was immobilised on a CM5 sensorchip using amine coupling chemistry. Anti-IL-23 hybridoma antibody sample was injected over the surface and the murine mAb captured. Subsequently recombinant human IL-23, recombinant cynomologus IL-23 or recombinant human IL-12 was flowed over the captured antibody surface at 5 different concentrations (range 0 nM-91 nM) to obtain binding sensorgrams. Regeneration of the surface after antibody and antigen injections was done by injecting 0.1 M phosphoric acid for 3 minutes. Double referencing was used on all sensorgrams with a buffer injection over the anti-murine IgG sensorchip surface. The experiment was performed at 25° C. in HBS-EP buffer. Resulting sensorgram data was analysed using the 1:1 binding model incorporated within the Biaevaluation software for the Biacore 3000 instrument. Data presented in Table 2 are from using hybridoma supernatant taken from a tissue culture flask.

[2] = molecular target: T3, recombinant cynomologus IL-23; assay: SPR (Biacore 3000), hybridoma supernatant mAb captured on anti-murine IgG, cynomologus IL-23 analyte, 1:1 model, 25 C
Description: as §1

recombinant human IL-23 [3] = molecular target: T2, recombinant human IL-23; assay: IL-23/IL-23R inhibition ELISA (first protocol, OD490): plate coated with human IL23R Fc chimera, antibody pre-incubated with constant human IL-23, bound IL-23 detected with biotinylated anti-human IL-12; tissue culture supernatant
Description: Chimeric and humanized mAbs were assessed for their ability to neutralise human IL-23 binding to human IL-23 receptor, and cyno IL23 binding to human IL23 receptor. Plates were coated with human IL23R Fc chimera at 1 μg/diluent (bicarbonate buffer). 50 μl/well of this mixture was incubated overnight at 4° C. The plates were then washed twice with Tris Buffered Saline with 0.05% Tween 20 (TBST). Plates were blocked with 1% BSA TBST 100 μl/well for a minimum of 1 hour at room temperature. The plates were then washed twice with Tris Buffered Saline with 0.05% Tween 20 (TBST). Various concentrations of antibody were incubated in a separate plate with a constant concentration of IL-23 for 1 hour at room temperature. 50 ul of each mixture were transferred to the assay plate and incubated at RT for 1 hr. They were then washed twice with Tris Buffered Saline with 0.05% Tween 20 (TBST). Bound IL23 was detected by anti human 1L12 Biotin labelled Ab (R&D systems BAF219) diluted to 100 ng/ml in 1% BSA TBST. 50 μl/well of the biotinylated antibody was added and incubated at RT for 1 hour. The plates were then washed twice with Tris Buffered Saline with 0.05% Tween 20 (TBST). ExtrAvidin-Peroxidase (Sigma E2886) was diluted 1/1000 in 1% BSA TBST, 50 μl/well was added to the plates. […] The plate was read at OD490 nm using the SOftmaxPRO versamax plate reader.

recombinant human IL-23 [4] = molecular target: T2, recombinant human IL-23; assay: IL-23/IL-23R inhibition ELISA (optimised protocol, OD450): plate coated with human IL23R Fc chimera, antibody pre-incubated with constant human IL-23, bound IL-23 detected with biotinylated anti-human IL-12; purified antibody
Description: (§2) Optimised protocol: Plates were coated with human IL23R Fc chimera at […] (phosphate buffered saline). 50 μl/well of this mixture was incubated overnight at 4° C. The plates were then washed three times with Phosphate Buffered Saline with 0.05% Tween 20 (PBST). Plates were blocked with 4% skim milk powder (Fluka BioChemika #70166) PBST 100 μl/well for a minimum of 1 hour at room temperature. The plates were then washed three times with Phosphate Buffered Saline+0.05% Tween 20 (PBST). Various concentrations of antibody were incubated in a separate plate with a constant concentration of IL-23 for 1 hour at room temperature. 50 ul of each mixture were transferred to the assay plate and incubated at RT for 1 hr. They were then washed three times with Phosphate Buffered Saline+0.05% Tween 20 (PBST). Bound IL23 was detected by anti human 1L12 Biotin labelled Ab (R&D systems BAF219) diluted to 100 ng/ml in 4% skim milk powder (Fluka BioChemika #70166) PBST. 50 μl/well of the biotinylated antibody was added and incubated at RT for 1 hour. The plates were then washed three times with Phosphate Buffered Saline+0.05% Tween 20 (PBST). SA HRP (GE healthcare RPN4401) was diluted 1/4000 in 4% skim m ilk powder (Fluka BioChemika #70166) PBS, 50 μl/well was added to the plates. The plates were then washed three times with Phosphate Buffered Saline+0.05% Tween 20 (PBST). 50 ul/well of TMB was added to the plates and incubated at RT for 15 min. 25 μl/well of 3 MH₂SO₄ was added to the wells already containing TMB. The plate was read at OD450 nm using the SOftmaxPRO versamax plate reader.

[5] = molecular target: T3, recombinant cynomologus IL-23; assay: IL-23/IL-23R inhibition ELISA (optimised protocol, OD450): plate coated with human IL23R Fc chimera, antibody pre-incubated with constant cynomolgus IL-23, bound IL-23 detected with biotinylated anti-human IL-12; purified antibody
Description: as §2

recombinant human IL-23 [6] = molecular target: T2, recombinant human IL-23; assay: sandwich ELISA (optimised protocol, OD450): plate coated with anti-human IL-12, antibody pre-incubated with constant human IL-23, bound antibody detected with anti-human IgG gamma chain HRP; purified antibody
Description: Optimised assay conditions: Plates were coated with anti human IL12 at 2 μg/diluent (phosphate buffered saline). 50 μl/well of this mixture was incubated overnight at 4° C. The plates were then washed three times with Phosphate Buffered Saline with 0.05% Tween 20 (PBST). Plates were blocked with 4% skim milk powder (Fluka BioChemika #70166) PBS 200 μl/well for a minimum of 1 hour at room temperature. The plates were then washed three times with Phosphate Buffered Saline+0.05% Tween 20 (PBST). Various concentrations of antibody were incubated in a separate plate with a constant concentration of IL-23 for 1 hour at room temperature. 50 ul of each mixture were transferred to the assay plate and incubated at RT for 1 hr. They were then washed three times with Phosphate Buffered Saline+0.05% Tween 20 (PBST). […] 50 μl/well of the detection antibody was added and incubated at RT for 1 hour. The plates were then washed three times with Phosphate Buffered Saline+0.05% Tween 20 (PBST). 50 μl/well of TMB was added to the plates and incubated at RT for 10 min. 50 μl/well of 1 MH₂SO₄ was added. The plate was read at OD450 nm using the SOftmaxPRO versamax plate reader.

recombinant human IL-23 [7] = molecular target: T2, recombinant human IL-23; assay: SPR (Biacore 3000), CHO supernatant antibody captured on Protein A or anti-human IgG, IL-23 analyte at 256, 64, 16, 4 nM
recombinant human IL-23 [8] = molecular target: T2, recombinant human IL-23; assay: SPR (Biacore T100), CHO supernatant antibody captured on Protein A or anti-human IgG, IL-23 analyte at 256, 64, 16, 4, 1 nM

IC50 (read off the curve) (Endogenous human IL-23) [µg/mL] | Kd (recombinant human IL-23 [1]) [nM] | koff (recombinant human IL-23 [1]) [s⁻¹] | kon (recombinant human IL-23 [1]) [M⁻¹ s⁻¹] | Kd [2] [nM] | koff [2] [s⁻¹] | kon [2] [M⁻¹ s⁻¹] | IC50 (read off the curve) (recombinant human IL-23 [3]) [µg/mL] | IC50 (read off the curve) (recombinant human IL-23 [4]) [nM] | IC50 (read off the curve) [5] [nM] | EC50 (read off the curve) (recombinant human IL-23 [6]) [nM] | Kd (recombinant human IL-23 [7]) [nM] | koff (recombinant human IL-23 [7]) [s⁻¹] | kon (recombinant human IL-23 [7]) [M⁻¹ s⁻¹] | Kd (recombinant human IL-23 [8]) [nM] | koff (recombinant human IL-23 [8]) [s⁻¹] | kon (recombinant human IL-23 [8]) [M⁻¹ s⁻¹] | Binder
~0.06 | 2.99 | 0.000301 | 101000 | 3.38 | 0.000369 | 110000 | – | – | – | – | – | – | – | – | – | – | murine mAb 8C9 2H6 (antibody, V domains shown, Murine hybridoma antibody; also called mouse parental; IL-23 murine 8C92H6 mAb) VH: QVQLQQSGAELARPGTSVKLSCKASGYTFTSYGITWVKQRTGQGLEWIGENYPRSGNTYYNEKFKGKATLTADKSSSTAYMELRSLTSEDSAVYFCARCEFISTVVAPYYYALDYWGQGTSVTVSS VL: DIVLTQSPASLAVSLGQKATISCKASKKVTIFGSISALHWYQQKPGQPPKLIYNGAKLESGVSARFSDSGSQNRSPFGNQLSFTLTIDPVEADDAATYYCLQNKEVPYTFGGGTKLEIK
– | – | – | – | – | – | – | ~0.01 | ~0.5 | ~0.8 | ~0.04 | 1.5 | 0.00036 | 240000 | 2.4 | 0.00031 | 130000 | A3M1 (antibody, human IgG1, kappa, V domains shown, Full length chains) VH: QVQLVQSGAEVKKPGSSVKVSCKASGYTFTSYGITWVRQAPGQGLEWMGENYPRSGNTYYNEKFKGRVTITADKSTSTAYMELSSLRSEDTAVYYCARSEFISTVVAPYYYALDYWGQGTLVTVSS VL: DIVMTQSPDSLAVSLGERATINCKASKKVTIFGSISALHWYQQKPGQPPKLIYNGAKLESGVSDRFSDSGSQNRSPFGNQLSFTLTISSLQAEDVAVYYCLQNKEVPYTFGGGTKVEIKR
